Results taken from PMC2788276 (Protein Science : A Publication of the Protein Society, 2009).

B1: HCoV‐OC43 N protein, residues 233–448 (domain or fragment)
chain: ADQIASLVLAKLGKDATKPQQVTKHTAKEVRQKILNKPRQKRSPNKQCTVQQCFGKRGPNQNFGGGEMLKLGTSDPQFPILAELAPTAGAFFFGSRLELAKVQNLSGNPDEPQKDVYELRYNGAIRFDSTLSGFETIMKVLNENLNAYQQQDGMMNMSPKPQRQRGHKNGQGENDNISVAVPKSRVQQNKSRELTAEDISLLKKMDEPYTEDTSEI

Tests used:
cross-linking = molecular target: the molecule itself; experiment: cross-linking
[1] = molecular target: HCoV-OC43 N1-173 (N-terminal domain) (Human coronavirus OC43, UniProt P33469 1-173); experiment: SPR
[2] = molecular target: HCoV-OC43 N233-300 (central linker) (Human coronavirus OC43, UniProt P33469 233-300); experiment: SPR
[3] = molecular target: HCoV-OC43 N301-448 (C-terminal domain) (Human coronavirus OC43, UniProt P33469 301-448); experiment: SPR

HCoV-OC43 N1-173 (N-terminal domain), sequence (P33469 1-173): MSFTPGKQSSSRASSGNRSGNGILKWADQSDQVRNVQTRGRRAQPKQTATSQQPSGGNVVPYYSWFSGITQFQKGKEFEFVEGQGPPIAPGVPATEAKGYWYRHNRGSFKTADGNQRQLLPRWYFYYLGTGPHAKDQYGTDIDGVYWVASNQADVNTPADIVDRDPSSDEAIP

| Binder | binding result (cross-linking) | Kd [1] [nM] | Kd [2] [nM] | binding result [3] |
| --- | --- | --- | --- | --- |
| B1 | binds | – | – | – |
| UCUAAACUCUAAACUCUAAACUCUAAAC (ssRNA) [(UCUAAAC)4 intergenic repeat RNA] | – | 68.9 ± 8.4 | 64.1 ± 7.2 | no binding |
